According to patent US20240400715A1 (VIBRANT PHARMA, published 2024):
Where a chain is given by its changes, count along the chain named.

B1: bispecific antibody 101 (Fab-Knob+CEA-Hole) (bispecific antibody, human IgG4 S228P, kappa, F234A L235A)
heavy: EVKLLESGGGLVQPKGSLKLSCAASGFTFNTYAMNWVRQAPGKGLEWVARIRSKYNNYATYYADSVKDRFTISRDDSQSILYLQMNNLKTEDTAMYYCVRHGNFGNSYVSWFAYWGQGTLVTVSSASTKGPSVFPLAPCSRSTSESTAALGCLVKDYFPEPVTVSWNSGALTSGVHTFPAVLQSSGLYSLSSVVTVPSSSLGTKTYTCNVDHKPSNTKVDKRVESKYGPPCPPCPAPEAAGGPSVFLFPPKPKDTLMISRTPEVTCVVVDVSQEDPEVQFNWYVDGVEVHNAKTKPREEQFNSTYRVVSVLTVLHQDWLNGKEYKCKVSNKGLPSSIEKTISKAKGQPREPQVYTLPPCQEEMTKNQVSLWCLVKGFYPSDIAVEWESNGQPENNYKTTPPVLDSDGSFFLYSRLTVDKSRWQEGNVFSCSVMHEALHNHYTQKSLSLSL
chain: EVQLVESGGGFVQAGESLTLSCTSSTLTFTPYRMAWYRQAPGKQRDLVADISSGDGRTTNYADFAKGRFTISRDNIKNTVFLRMTNLKPEDTAVYYCNTFVSFVGIARSWGQGTQVTVSSESKYGPPCPPCPAPEAAGGPSVFLFPPKPKDTLMISRTPEVTCVVVDVSQEDPEVQFNWYVDGVEVHNAKTKPREEQFNSTYRVVSVLTVLHQDWLNGKEYKCKVSNKGLPSSIEKTISKAKGQPREPQVCTLPPSQEEMTKNQVSLSCAVKGFYPSDIAVEWESNGQPENNYKTTPPVLDSDGSFFLVSRLTVDKSRWQEGNVFSCSVMHEALHNRFTQKSLSLSL
light: QAVVTQESALTTSPGETVTLTCRSSTGAVTTSNYANWVQEKPDHLFTGLIGGTNKRAPGVPARFSGSLIGDKAALTITGAQTEDEAIYFCALWYSNLWVFGGGTKVEIKRTVAAPSVFIFPPSDEQLKSGTASVVCLLNNFYPREAKVQWKVDNALQSGNSQESVTEQDSKDSTYSLSSTLTLSKADYEKHKVYACEVTHQGLSSPVTKSFNRGEC
notes: Human IgG4 Fc with knob-into-hole, kappa light chain
B2: bispecific antibody 104 (CEA-Knob+Fab-Hole) (bispecific antibody, human IgG4 S228P, kappa, F234A L235A)
chain: B1 chain with C251Y, S256C, S268W, A270L, V309Y, R337H, F338Y
heavy: B1 heavy with Y354C, C359S, W371S, L373A, Y412V, H440R, Y441F
light: B1 light
notes: as for B1
B3: EGFR-CD3 bispecific antibody 404 (bispecific antibody, human IgG4 S228P, kappa, F234A L235A)
chain: QVQLQESGGGSVQAGGSLKLSCAASGRGFSRYAMGWFRQAPGQDREFVATISWTNSTDYADSVKGRFAISRDNAKNTAYLQMNSLKPEDTAVYYCAADKWASSTRSIDYDYWGQGIQVTVSSESKYGPPCPPCPAPEAAGGPSVFLFPPKPKDTLMISRTPEVTCVVVDVSQEDPEVQFNWYVDGVEVHNAKTKPREEQFNSTYRVVSVLTVLHQDWLNGKEYKCKVSNKGLPSSIEKTISKAKGQPREPQVYTLPPCQEEMTKNQVSLWCLVKGFYPSDIAVEWESNGQPENNYKTTPPVLDSDGSFFLYSRLTVDKSRWQEGNVFSCSVMHEALHNHYTQKSLSLSL
heavy: B1 heavy with Y354C, C359S, W371S, L373A, Y412V, H440R, Y441F
light: B1 light
B4: HER2-CD3 bispecific antibody 501 (bispecific antibody, human IgG4 S228P, kappa, F234A L235A)
heavy: B1 heavy
chain: QVQLVQSGGGLVQAGGSLRLSCAASGRTFSSYAMAWFRQAPGKEREFVAAISWSGANIYVADSVKGRFTISRDNAKDTVYLQMNSLKPEDTAVYYCAVKLGFAPVEERQYDYWGQGTQVTVSSESKYGPPCPPCPAPEAAGGPSVFLFPPKPKDTLMISRTPEVTCVVVDVSQEDPEVQFNWYVDGVEVHNAKTKPREEQFNSTYRVVSVLTVLHQDWLNGKEYKCKVSNKGLPSSIEKTISKAKGQPREPQVCTLPPSQEEMTKNQVSLSCAVKGFYPSDIAVEWESNGQPENNYKTTPPVLDSDGSFFLVSRLTVDKSRWQEGNVFSCSVMHEALHNRFTQKSLSLSL
light: B1 light
B5: HER2-CD3 bispecific antibody 504 (bispecific antibody, human IgG4 S228P, kappa, F234A L235A)
chain: B4 chain with C254Y, S259C, S271W, A273L, V312Y, R340H, F341Y
heavy: B1 heavy with Y354C, C359S, W371S, L373A, Y412V, H440R, Y441F
light: B1 light

Tests used:
[1] = biological target: T1, human CEA (CEACAM5) on tumor cells (human, UniProt P06731 35-702); assay: cell-based or functional assay
T1 sequence (looked up): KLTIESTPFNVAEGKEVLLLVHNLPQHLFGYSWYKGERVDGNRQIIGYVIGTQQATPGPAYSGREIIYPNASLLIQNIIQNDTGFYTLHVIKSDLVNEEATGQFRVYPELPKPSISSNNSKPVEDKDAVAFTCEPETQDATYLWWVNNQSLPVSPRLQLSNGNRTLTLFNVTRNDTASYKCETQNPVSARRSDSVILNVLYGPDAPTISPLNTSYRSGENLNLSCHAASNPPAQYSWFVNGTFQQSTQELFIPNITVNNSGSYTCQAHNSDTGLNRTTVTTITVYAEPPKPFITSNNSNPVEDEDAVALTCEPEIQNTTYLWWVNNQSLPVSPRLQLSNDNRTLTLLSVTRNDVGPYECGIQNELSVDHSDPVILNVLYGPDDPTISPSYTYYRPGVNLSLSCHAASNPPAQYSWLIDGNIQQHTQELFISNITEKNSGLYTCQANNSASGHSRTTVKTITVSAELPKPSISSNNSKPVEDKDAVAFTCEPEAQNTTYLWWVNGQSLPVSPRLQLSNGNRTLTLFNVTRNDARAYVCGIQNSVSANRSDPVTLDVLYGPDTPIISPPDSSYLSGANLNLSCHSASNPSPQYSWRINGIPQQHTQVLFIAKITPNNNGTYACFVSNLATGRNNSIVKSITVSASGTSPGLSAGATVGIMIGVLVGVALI

[2] = biological target: T2, keyhole limpet haemocyanin (KLH, Sigma, H8283) (keyhole limpet, UniProt Q10583 17-3414; Q10584 20-3421, limits assumed); assay: ELISA, KLH coated at 5 ug/mL, 100 nM antibody, anti-human IgG-HRP
T2 construct: Bought preparation coated on the plate in the polyspecificity ELISA
Description: (§1) (1) Antigen coating: cardiolipin (Sigma, cat. C0563), keyhole limpet haemocyanin (KLH, Sigma, H8283), LPS (Sigma, L6529), ssDNA (Sigma, D8899), dsDNA (Sigma, D4522) and Insulin (abs42019847) were plated at 50 μg/mL, 5 μg/mL, 10 μg/mL, 1 μg/mL, 1 μg/mL, g/mL, and 50 μL per well, and incubated at 4° C. overnight;
(§2) (4) 50 μl anti-human IgG-HRP conjugate (Sigma, AP113P, 1:8000 dilution) was added to each well; the plate was incubated for 1 h at room temperature and washed 6 times with 0.05% PBST;

[3] = biological target: T3, Insulin (abs42019847); assay: ELISA, insulin coated on the plate, 100 nM antibody, anti-human IgG-HRP
T3 construct: Coated on the plate in the polyspecificity ELISA
Description: as §1, §2

[4] = biological target: the molecule itself; assay: BLI self-interaction: antibody captured on AHQ anti-human Fc sensor, free sites blocked with human IgG, same antibody in solution
Description: The bispecific antibodies were diluted to 1 μM, and the proteins were coupled to the surface of the AHQ sensor chip in PBS, and the signal value was ˜0.8 nm. […] The experimental parameters are as follows: Baseline1: 60s, Loading: 180s, Loading response: 0.8 nm, Baseline2: 180s, Association: 240s, High sensitivity kinetics: 2 Hz.

[5] = biological target: T1, human CEA (CEACAM5) on tumor cells; assay: cell-based or functional assay; remark: listed apart in the source
[6] = biological target: T4, human EGFR on tumor cells (human, UniProt P00533 25-1210); assay: cell-based or functional assay
[7] = biological target: T4, human EGFR on tumor cells; assay: cell-based or functional assay; remark: listed apart in the source
[8] = biological target: T5, human HER2 on tumor cells (human, UniProt P04626 23-1255); assay: cell-based or functional assay
[9] = biological target: T6, recombinant tumor antigen human HER2 (ERBB2, ACRO systems, HE2-H5212) (human, UniProt P04626 23-652); assay: BLI (Octet RED96e), antibody captured on AHC anti-human Fc sensor, HER2 as analyte, 30 C, 1:1 fit
T6 construct: Bought recombinant protein
Excerpt: After the chip captures the bispecific antibodies, it was allowed to bind and dissociate with different concentrations of analytes to obtain the KD value of the interaction. The experimental parameters are as follows: Baseline1: 60s, Loading: 240s, Baseline2: 180s, Association: 240s, Dissociation: 600s, Loading Response: 1.9-2.1 (nm), High sensitivity kinetics: 2 Hz. Kinetic constants were derived based on 1:1 Langmuir binding to obtain equilibrium dissociation constants (KD).

[10] = biological target: T5, human HER2 on tumor cells; assay: cell-based or functional assay; remark: listed apart in the source

| Binder | EC50 of tumor cell killing, MDA-MB-468 cells with human PBMC (E:T 10:1, 3 days, CCK8) [1] | EC50 of tumor cell killing, NCI-H1573 cells with human PBMC (E:T 10:1, 3 days, CCK8) [1] | EC50 of tumor cell killing, SK-OV-3 cells with human PBMC (E:T 10:1, 3 days, CCK8) [1] | Absorbance value (450 nm, polyspecificity ELISA) [2] | Absorbance value (450 nm, polyspecificity ELISA) [3] | BLI-Response (self-interaction signal) [4] | EC50 of tumor cell killing, MCF-7 cells with human PBMC (E:T 10:1, 3 days, CCK8) [5] | EC50 of tumor cell killing, MDA-MB-453 cells with human PBMC (E:T 10:1, 3 days, CCK8) [5] | EC50 of tumor cell killing, N87 cells with human PBMC (E:T 10:1, 3 days, CCK8) [5] | EC50 of tumor cell killing, MDA-MB-468 cells with human PBMC (E:T 10:1, 3 days, CCK8) [8] | EC50 of tumor cell killing, NCI-H1573 cells with human PBMC (E:T 10:1, 3 days, CCK8) [8] | EC50 of tumor cell killing, NCI-H1650 cells with human PBMC (E:T 10:1, 3 days, CCK8) [8] | EC50 of tumor cell killing, NCI-H2228 cells with human PBMC (E:T 10:1, 3 days, CCK8) [8] | EC50 of tumor cell killing, SK-OV-3 cells with human PBMC (E:T 10:1, 3 days, CCK8) [8] | Kd [9] | koff [9] | kon [9] | EC50 of tumor cell killing, MCF-7 cells with human PBMC (E:T 10:1, 3 days, CCK8) [10] | EC50 of tumor cell killing, MDA-MB-453 cells with human PBMC (E:T 10:1, 3 days, CCK8) [10] | EC50 of tumor cell killing, N87 cells with human PBMC (E:T 10:1, 3 days, CCK8) [10] | also measured |
| --- | --- | --- | --- | --- | --- | --- | --- | --- | --- | --- | --- | --- | --- | --- | --- | --- | --- | --- | --- | --- | --- |
| B1 | 1.16 nM | 0.00287 nM | 1 nM | 1.05 | 2.02 | 0.21 nm | 8.01 nM | 8.35 nM | 0.2 nM |  |  |  |  |  |  |  |  |  |  |  |  |
| B2 | 0.672 nM | 0.00384 nM | 0.987 nM | 1.08 | 2.88 | 0.22 nm | 8.63 nM | 1.96 nM | 0.0972 nM |  |  |  |  |  |  |  |  |  |  |  |  |
| B3 |  |  |  | 1.06 | 1.08 | 0.062 nm |  |  |  |  |  |  |  |  |  |  |  |  |  |  | EC50 of tumor cell killing, MDA-MB-468 cells with human PBMC (E:T 10:1, 3 days, CCK8) [6]: 0.0158 pM; EC50 of tumor cell killing, NCI-H1573 cells with human PBMC (E:T 10:1, 3 days, CCK8) [6]: 0.00694 nM; EC50 of tumor cell killing, NCI-H1650 cells with human PBMC (E:T 10:1, 3 days, CCK8) [6]: 0.0677 nM; EC50 of tumor cell killing, NCI-H2228 cells with human PBMC (E:T 10:1, 3 days, CCK8) [6]: 0.0734 nM; EC50 of tumor cell killing, SK-OV-3 cells with human PBMC (E:T 10:1, 3 days, CCK8) [6]: 0.00995 nM; EC50 of tumor cell killing, MCF-7 cells with human PBMC (E:T 10:1, 3 days, CCK8) [7]: 0.084 nM; EC50 of tumor cell killing, N87 cells with human PBMC (E:T 10:1, 3 days, CCK8) [7]: 1.47 nM; EC50 of tumor cell killing, NCI-H157 cells with human PBMC (E:T 10:1, 3 days, CCK8) [7]: 17.7 nM; EC50 of tumor cell killing, NCI-H441 cells with human PBMC (E:T 10:1, 3 days, CCK8) [7]: 0.00908 nM |
| B4 |  |  |  | 1.45 | 1.52 | 0.056 nm |  |  |  | 1.79 nM | 0.0405 nM | 1.59 nM | 10.2 nM | 0.0198 nM | 13.1 nM | 0.00349 s⁻¹ | 266000 M⁻¹ s⁻¹ | 8.29 nM | 4.05 nM | 1.32 nM | EC50 of tumor cell killing, NCI-H157 cells with human PBMC (E:T 10:1, 3 days, CCK8) [10]: 36.2 nM; EC50 of tumor cell killing, NCI-H441 cells with human PBMC (E:T 10:1, 3 days, CCK8) [10]: 0.152 nM |
| B5 |  |  |  | 1.92 | 1.51 |  |  |  |  | 0.332 nM | 0.0378 nM | 1.62 nM | 2.43 nM | 0.01 nM | 18 nM | 0.00413 s⁻¹ | 230000 M⁻¹ s⁻¹ | 1.22 nM | 4.06 nM | 1.29 nM | EC50 of tumor cell killing, NCI-H157 cells with human PBMC (E:T 10:1, 3 days, CCK8) [10]: 10.8 nM; EC50 of tumor cell killing, NCI-H441 cells with human PBMC (E:T 10:1, 3 days, CCK8) [10]: 0.119 nM |
